Experimental data as given in publication PMC2734569, “Functional mapping of the fission yeast DNA polymerase δ B-subunit Cdc1 by site-directed and random pentapeptide insertion mutagenesis” (BMC Molecular Biology, 2009).

Columns and labels:
Assay in all cases: two-hybrid; LexA-Cdc1 bait (pBTM116 or pBTM116BN) with Gal4 activation domain-Cdc27 prey (pGAD2F-Cdc27) in S. cerevisiae CTY10-5d; ONPG liquid culture beta-galactosidase assay, mean of triplicates, as percent of wild-type Cdc1
Details in all cases: partners not purified
[1] = target: T1, Cdc1-E9 (Schizosaccharomyces pombe, UniProt P87324 1-462, Tyr-GlyGlyTyrProTyr-Gly)
T1 construct: Cdc1, S. pombe, with a pentapeptide inserted after residue 124; source: yeast two-hybrid fusion, in S. cerevisiae CTY10-5d
T1 sequence (looked up): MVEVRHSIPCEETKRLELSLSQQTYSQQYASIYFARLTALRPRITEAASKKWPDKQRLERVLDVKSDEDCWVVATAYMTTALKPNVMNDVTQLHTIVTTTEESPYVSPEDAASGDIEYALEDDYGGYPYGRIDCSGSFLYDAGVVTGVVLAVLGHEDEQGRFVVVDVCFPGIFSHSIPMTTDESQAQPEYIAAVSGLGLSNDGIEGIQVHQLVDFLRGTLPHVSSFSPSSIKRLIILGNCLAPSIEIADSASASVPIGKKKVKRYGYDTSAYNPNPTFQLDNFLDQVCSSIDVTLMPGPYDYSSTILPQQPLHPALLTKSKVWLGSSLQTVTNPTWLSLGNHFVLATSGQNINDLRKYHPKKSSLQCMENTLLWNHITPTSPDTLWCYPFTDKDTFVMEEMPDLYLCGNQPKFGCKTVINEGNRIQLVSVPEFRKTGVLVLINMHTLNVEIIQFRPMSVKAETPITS

[2] = target: T2, Cdc1-J22 (Schizosaccharomyces pombe, UniProt P87324 1-462, Arg-GlyValProLeuArg-Gly)
T2 construct: Cdc1, S. pombe, with a pentapeptide inserted after residue 212; source: yeast two-hybrid fusion, in S. cerevisiae CTY10-5d
T2 sequence (looked up): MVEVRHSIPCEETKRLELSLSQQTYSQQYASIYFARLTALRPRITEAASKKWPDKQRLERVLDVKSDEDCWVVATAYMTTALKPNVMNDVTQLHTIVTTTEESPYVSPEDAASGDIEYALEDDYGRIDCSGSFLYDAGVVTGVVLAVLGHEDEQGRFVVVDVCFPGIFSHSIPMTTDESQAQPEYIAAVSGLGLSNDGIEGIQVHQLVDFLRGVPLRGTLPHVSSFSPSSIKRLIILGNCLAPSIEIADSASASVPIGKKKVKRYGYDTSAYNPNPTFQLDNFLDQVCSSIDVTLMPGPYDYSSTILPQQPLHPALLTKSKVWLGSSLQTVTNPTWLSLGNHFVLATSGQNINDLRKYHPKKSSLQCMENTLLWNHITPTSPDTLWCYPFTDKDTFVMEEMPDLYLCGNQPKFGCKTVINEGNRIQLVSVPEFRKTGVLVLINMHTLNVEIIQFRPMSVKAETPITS

[3] = target: T3, Cdc1-A4 (Schizosaccharomyces pombe, UniProt P87324 1-462, Pro303Ala)
T3 construct: Cdc1, S. pombe, point mutant; source: yeast two-hybrid fusion, in S. cerevisiae CTY10-5d
T3 sequence (looked up): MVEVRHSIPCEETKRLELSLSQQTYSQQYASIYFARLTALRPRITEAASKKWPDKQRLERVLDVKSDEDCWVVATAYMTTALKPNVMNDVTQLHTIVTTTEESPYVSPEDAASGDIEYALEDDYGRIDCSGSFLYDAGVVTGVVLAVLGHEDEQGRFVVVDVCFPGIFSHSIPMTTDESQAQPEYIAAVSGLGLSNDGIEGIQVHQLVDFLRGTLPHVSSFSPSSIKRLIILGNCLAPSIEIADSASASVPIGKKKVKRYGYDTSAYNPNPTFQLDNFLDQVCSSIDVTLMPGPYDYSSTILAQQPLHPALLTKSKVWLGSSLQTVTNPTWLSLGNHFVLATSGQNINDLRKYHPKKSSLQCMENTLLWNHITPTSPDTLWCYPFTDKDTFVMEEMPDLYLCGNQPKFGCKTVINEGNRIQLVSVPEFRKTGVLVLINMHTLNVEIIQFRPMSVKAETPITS

[4] = target: T4, Cdc1-J7 (Schizosaccharomyces pombe, UniProt P87324 1-462, Met-GlyValProLeuMet-Glu)
T4 construct: Cdc1, S. pombe, with a pentapeptide inserted after residue 393; source: yeast two-hybrid fusion, in S. cerevisiae CTY10-5d
T4 sequence (looked up): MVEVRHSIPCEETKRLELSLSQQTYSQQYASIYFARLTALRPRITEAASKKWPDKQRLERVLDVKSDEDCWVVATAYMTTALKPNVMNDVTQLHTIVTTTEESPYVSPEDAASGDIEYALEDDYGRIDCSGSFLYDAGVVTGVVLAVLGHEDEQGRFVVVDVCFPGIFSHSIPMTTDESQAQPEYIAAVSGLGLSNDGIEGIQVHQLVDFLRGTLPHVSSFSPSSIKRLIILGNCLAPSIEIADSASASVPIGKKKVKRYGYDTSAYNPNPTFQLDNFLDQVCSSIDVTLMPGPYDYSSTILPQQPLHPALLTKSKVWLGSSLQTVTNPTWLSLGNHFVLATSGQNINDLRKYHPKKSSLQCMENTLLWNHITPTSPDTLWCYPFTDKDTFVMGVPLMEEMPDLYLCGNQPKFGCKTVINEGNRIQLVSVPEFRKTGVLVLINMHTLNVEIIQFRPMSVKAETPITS

two-hybrid beta-galactosidase activity, % of wild-type Cdc1 [1]: < 1%
two-hybrid beta-galactosidase activity, % of wild-type Cdc1 [2]: 7%
two-hybrid beta-galactosidase activity, % of wild-type Cdc1 [3]: 31%
two-hybrid beta-galactosidase activity, % of wild-type Cdc1 [4]: 19%
B1: Cdc27 (fission yeast DNA polymerase delta C-subunit) (natural protein, Schizosaccharomyces pombe, UniProt P30261 1-372, looked up)
chain: MEEWRNFLDIKVINESSLVTVDNLSLQLDISSEKAQEYLNMFYQGNDFLYPIYLIHGQPIDDEINLEIDEESQPISNFPVLQYILCDKSSLQEKQSRLKSGYKTVIFALSSAPLSDFDELLPAVYEIREKDVLYKKEDADKYGFIFNENSVPRVLKKAPSTHSPQLSVPSKTSTIDKTDTRSTEKTKGKDIFSNARNQKGNSSRKNKKAPLENHKEKEPLLPKEEKLSEQAKRERDDLKNIMQLEDESVSTTSVHDSEDDNLDSNNFQLEIGTEAKSAAPDEPQEIIKSVSGGKRRGKRKVKKYATTKDEEGFLVTKEEEVWESFSEDENISTGTSNVVRNKPTTVNIATKKKNTAQSKPQQKSIMSFFGKK
notes: DNA polymerase delta C-subunit Cdc27, S. pombe; prey plasmid pGAD2F-Cdc27; also called pGAD2F-Cdc27; source: yeast two-hybrid fusion, in S. cerevisiae CTY10-5d
